# Test results from IntAct's records for PubMed 12732850.
# B1: Humanin (Homo sapiens), Q8IVG9 (parent)
# chain: MAPRGFSCLLLLTSEIDLPVKRRA
# Variants of: B1
# Settings: with bax_human BAX
row,Variant,effect of a mutation on the interaction
1,C8P,disrupting interaction strength
